B1: Vitamin D3 receptor (Homo sapiens), P11473 (parent)
chain: MEAMAASTSLPDPGDFDRNVPRICGVCGDRATGFHFNAMTCEGCKGFFRRSMKRKALFTCPFNGDCRITKDNRRHCQACRLKRCVDIGMMKEFILTDEEVQRKREMILKRKEEEALKDSLRPKLSEEQQRIIAILLDAHHKTYDPTYSDFCQFRPPVRVNDGGGSHPSRPNSRHTPSFSGDSSSSCSDHCITSSDMMDSSSFSNLDLSEEDSDDPSVTLELSQLSMLPHLADLVSYSIQKVIGFAKMIPGFRDLTSEDQIVLLKSSAIEVIMLRSNESFTMDDMSWTCGNQDYKYRVSDVTKAGHSLELIEPLIKFQVGLKKLNLHEEEHVLLMAICIVSPDRPGVQDAALIEAIQDRLSNTLQTYIRCRHPPPGSHLLYAKMIQKLADLRSLNEEHSKQYRCLSFQPECSMKLTPLVLEVFGNEIS
partner: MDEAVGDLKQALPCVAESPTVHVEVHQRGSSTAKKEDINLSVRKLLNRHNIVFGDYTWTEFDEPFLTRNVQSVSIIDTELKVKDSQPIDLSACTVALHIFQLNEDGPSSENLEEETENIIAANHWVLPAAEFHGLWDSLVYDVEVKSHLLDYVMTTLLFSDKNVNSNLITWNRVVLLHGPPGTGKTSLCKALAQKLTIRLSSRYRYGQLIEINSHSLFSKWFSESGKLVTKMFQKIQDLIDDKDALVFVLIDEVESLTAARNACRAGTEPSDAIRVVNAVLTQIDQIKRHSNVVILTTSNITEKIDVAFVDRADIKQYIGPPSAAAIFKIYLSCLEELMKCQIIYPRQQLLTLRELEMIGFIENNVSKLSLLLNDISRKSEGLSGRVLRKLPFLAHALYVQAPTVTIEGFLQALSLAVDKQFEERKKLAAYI
B2: Fructose-bisphosphate aldolase A (Homo sapiens), P04075-2 (parent)
chain: MARRKPEGSSFNMTHLSMAMAFSFPPVASGQLHPQLGNTQHQTELGKELATTSTMPYQYPALTPEQKKELSDIAHRIVAPGKGILAADESTGSIAKRLQSIGTENTEENRRFYRQLLLTADDRVNPCIGGVILFHETLYQKADDGRPFPQVIKSKGGVVGIKVDKGVVPLAGTNGETTTQGLDGLSERCAQYKKDGADFAKWRCVLKIGEHTPSALAIMENANVLARYASICQQNGIVPIVEPEILPDGDHDLKRCQYVTEKVLAAVYKALSDHHIYLEGTLLKPNMVTPGHACTQKFSHEEIAMATVTALRRTVPPAVTGITFLSGGQSEEEASINLNAINKCPLLKPWALTFSYGRALQASALKAWGGKKENLKAAQEEYVKRALANSLACQGKYTPSGQAGAAASESLFVSNHAY
partner: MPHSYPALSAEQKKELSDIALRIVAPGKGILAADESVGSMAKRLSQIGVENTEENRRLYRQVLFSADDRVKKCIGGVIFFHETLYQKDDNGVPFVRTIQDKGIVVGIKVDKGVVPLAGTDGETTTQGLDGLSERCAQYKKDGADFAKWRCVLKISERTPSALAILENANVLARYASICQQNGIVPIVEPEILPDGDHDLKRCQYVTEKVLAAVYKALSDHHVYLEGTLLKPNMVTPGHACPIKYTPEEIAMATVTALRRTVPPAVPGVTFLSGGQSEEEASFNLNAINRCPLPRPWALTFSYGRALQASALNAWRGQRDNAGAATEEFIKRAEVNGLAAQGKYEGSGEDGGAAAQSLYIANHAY
B3: Myelin proteolipid protein (Homo sapiens), P60201-2 (parent)
chain: MGLLECCARCLVGAPFASLVATGLCFFGVALFCGCGHEALTGTEKLIETYFSKNYQDYEYLINVIHAFQYVIYGTASFFFLYGALLLAEGFYTTGAVRQIFGDYKTTICGKGLSATFVGITYALTVVWLLVFACSAVPVYIYFNTWTTCQSIAFPSKTSASIGSLCADARMYGVLPWNAFPGKVCGSNLLSICKTAEFQMTFHLFIAAFVGAAATLVSLLTFMIAATYNFAVLKLMGRGTKF
partner: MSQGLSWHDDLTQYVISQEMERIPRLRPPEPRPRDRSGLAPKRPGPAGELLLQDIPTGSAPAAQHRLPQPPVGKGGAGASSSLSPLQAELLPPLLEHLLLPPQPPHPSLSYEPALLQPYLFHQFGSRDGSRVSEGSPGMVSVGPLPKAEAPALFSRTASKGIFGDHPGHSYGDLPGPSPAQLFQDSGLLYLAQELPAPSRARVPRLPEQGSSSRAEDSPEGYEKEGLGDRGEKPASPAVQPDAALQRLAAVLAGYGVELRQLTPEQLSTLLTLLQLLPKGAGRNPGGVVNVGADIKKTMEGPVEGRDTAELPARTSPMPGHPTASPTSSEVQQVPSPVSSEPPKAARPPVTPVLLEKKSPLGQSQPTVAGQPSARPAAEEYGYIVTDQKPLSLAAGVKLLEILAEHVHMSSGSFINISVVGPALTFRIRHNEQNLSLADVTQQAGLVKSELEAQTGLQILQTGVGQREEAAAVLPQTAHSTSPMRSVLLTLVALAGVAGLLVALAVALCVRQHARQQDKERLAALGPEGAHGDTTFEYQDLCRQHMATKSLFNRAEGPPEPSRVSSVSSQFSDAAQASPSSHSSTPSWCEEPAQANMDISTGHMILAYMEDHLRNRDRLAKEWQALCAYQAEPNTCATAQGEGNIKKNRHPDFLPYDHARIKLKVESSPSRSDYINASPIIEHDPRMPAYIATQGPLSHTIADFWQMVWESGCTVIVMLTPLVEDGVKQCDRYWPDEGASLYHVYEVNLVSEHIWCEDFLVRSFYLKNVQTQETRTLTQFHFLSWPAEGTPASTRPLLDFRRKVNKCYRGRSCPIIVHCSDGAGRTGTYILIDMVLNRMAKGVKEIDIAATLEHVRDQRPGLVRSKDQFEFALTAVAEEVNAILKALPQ
B4: Phospholamban (Homo sapiens), P26678 (parent)
chain: MEKVQYLTRSAIRRASTIEMPQQARQKLQNLFINFCLILICLLLICIIVMLL
B5: Chorion-specific transcription factor GCMb (Homo sapiens), O75603 (parent)
chain: MPAAAVQEAVGVCSYGMQLSWDINDPQMPQELALFDQFREWPDGYVRFIYSSDEKKAQRHLSGWAMRNTNNHNGHILKKSCLGVVVCTQACTLPDGSRLQLRPAICDKARLKQQKKACPNCHSALELIPCRGHSGYPVTNFWRLDGNAIFFQAKGVHDHPRPESKSETEARRSAIKRQMASFYQPQKKRIRESEAEENQDSSGHFSNIPPLENPEDFDIVTETSFPIPGQPCPSFPKSDVYKATCDLATFQGDKMPPFQKYSSPRIYLPRPPCSYELANPGYTNSSPYPTLYKDSTSIPNDTDWVHLNTLQCNVNSYSSYERSFDFTNKQHGWKPALGKPSLVERTNHGQFQAMATRPYYNPELPCRYLTTPPPGAPALQTVITTTTKVSYQAYQPPAMKYSDSVREVKSLSSCNYAPEDTGMSVYPEPWGPPVTVTRAASPSGPPPMKIAGDCRAIRPTVAIPHEPVSSRTDEAETWDVCLSGLGSAVSYSDRVGPFFTYNNEDF
partner: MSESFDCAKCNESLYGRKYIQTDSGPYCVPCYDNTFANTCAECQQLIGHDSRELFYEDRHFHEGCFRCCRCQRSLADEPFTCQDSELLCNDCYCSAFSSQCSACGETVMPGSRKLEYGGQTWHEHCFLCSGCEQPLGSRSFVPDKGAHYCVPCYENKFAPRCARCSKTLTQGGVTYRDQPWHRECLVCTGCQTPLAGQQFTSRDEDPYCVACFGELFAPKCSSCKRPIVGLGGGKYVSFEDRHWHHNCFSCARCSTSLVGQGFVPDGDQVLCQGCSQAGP
B6: Tumor necrosis factor receptor superfamily member 13B (Homo sapiens), O14836-2 (parent)
chain: MSGLGRSRRGGRSRVDQEERWSLSCRKEQGKFYDHLLRDCISCASICGQHPKQCAYFCENKLRSPVNLPPELRRQRSGEVENNSDNSGRYQGLEHRGSEASPALPGLKLSADQVALVYSTLGLCLCAVLCCFLVAVACFLKKRGDPCSCQPRSRPRQSPAKSSQDHAMEAGSPVSTSPEPVETCSFCFPECRAPTQESAVTPGTPDPTCAGRWGCHTRTTVLQPCPHIPDSGLGIVCVPAQEGGPGA
B7: Cyclin-dependent kinase 4 inhibitor C (Homo sapiens), P42773 (parent)
chain: MAEPWGNELASAAARGDLEQLTSLLQNNVNVNAQNGFGRTALQVMKLGNPEIARRLLLRGANPDLKDRTGFAVIHDAARAGFLDTLQTLLEFQADVNIEDNEGNLPLHLAAKEGHLRVVEFLVKHTASNVGHRNHKGDTACDLARLYGRNEVVSLMQANGAGGATNLQ
partner: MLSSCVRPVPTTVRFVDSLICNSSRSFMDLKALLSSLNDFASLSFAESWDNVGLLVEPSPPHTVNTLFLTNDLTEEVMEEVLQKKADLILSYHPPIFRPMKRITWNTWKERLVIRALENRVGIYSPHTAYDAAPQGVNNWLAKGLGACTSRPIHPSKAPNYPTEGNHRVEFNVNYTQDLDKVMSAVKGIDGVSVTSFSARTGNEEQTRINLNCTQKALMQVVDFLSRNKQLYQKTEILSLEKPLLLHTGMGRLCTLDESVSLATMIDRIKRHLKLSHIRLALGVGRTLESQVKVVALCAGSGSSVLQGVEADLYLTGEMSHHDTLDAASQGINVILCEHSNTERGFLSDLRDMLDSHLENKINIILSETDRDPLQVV

Variants of: B1
Conditions: with pch2_human TRIP13, Q15645
In the case of E329K, the “effect of a mutation on the interaction” value is reported as “disrupting interaction strength”. With G33D the “effect of a mutation on the interaction” value was “with no effect”. In the case of C190W, the “effect of a mutation on the interaction” value is reported as “with no effect”. In the case of I268T, the “effect of a mutation on the interaction” value is reported as “with no effect”.

Variants of: B2
Conditions: with aldoc_human ALDOC
For C393Y, the “effect of a mutation on the interaction” value was “with no effect”. D183G was tested, and the “effect of a mutation on the interaction” value was “with no effect”. In the case of E261K, the “effect of a mutation on the interaction” value is reported as “disrupting interaction strength”.

Variants of: B3
Conditions: with PTPRN
P15L was tested, and the “effect of a mutation on the interaction” value was “disrupting interaction strength”. With A213E the “effect of a mutation on the interaction” value was “disrupting interaction strength”. In the case of W128L, the “effect of a mutation on the interaction” value is reported as “disrupting interaction strength”. In the case of L87P, the “effect of a mutation on the interaction” value is reported as “disrupting interaction strength”.

Variants of: B4
Conditions: with BCL2L13, Q9BXK5
Chain of BCL2L13, Q9BXK5 (Q9BXK5 whole entry): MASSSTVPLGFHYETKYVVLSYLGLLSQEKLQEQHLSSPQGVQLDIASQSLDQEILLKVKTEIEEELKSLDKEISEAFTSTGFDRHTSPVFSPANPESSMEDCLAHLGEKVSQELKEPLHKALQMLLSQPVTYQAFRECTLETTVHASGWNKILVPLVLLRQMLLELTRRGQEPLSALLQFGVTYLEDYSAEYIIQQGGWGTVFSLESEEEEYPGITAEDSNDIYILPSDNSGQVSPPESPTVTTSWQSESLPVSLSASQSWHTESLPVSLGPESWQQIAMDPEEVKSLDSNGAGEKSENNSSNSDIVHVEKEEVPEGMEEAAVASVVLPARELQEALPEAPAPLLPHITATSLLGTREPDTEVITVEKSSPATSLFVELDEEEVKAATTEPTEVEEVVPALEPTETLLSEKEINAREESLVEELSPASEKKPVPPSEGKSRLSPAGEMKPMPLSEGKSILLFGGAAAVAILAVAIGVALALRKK
For R9C, the “effect of a mutation on the interaction” value was “with no effect”.

Variants of: B4
Conditions: with eda_human EDA
In the case of R9C, the “effect of a mutation on the interaction” value is reported as “with no effect”.

Variants of: B5
Conditions: with fhl3_human FHL3, Q13643
With R47L the “effect of a mutation on the interaction” value was “disrupting interaction strength”. With G63S the “effect of a mutation on the interaction” value was “with no effect”. For G203S, the “effect of a mutation on the interaction” value was “with no effect”.

Variants of: B6
Conditions: with sgta_human SGTA
With V200F the “effect of a mutation on the interaction” value was “with no effect”. In the case of L125R, the “effect of a mutation on the interaction” value is reported as “disrupting interaction strength”.

Variants of: B7
Conditions: with nif3l_human NIF3L1, Q9GZT8
For V31L, the “effect of a mutation on the interaction” value was “disrupting interaction strength”.
